Data on seven sequences can be found in the Immune Epitope Database (IEDB).

Assay [1] addresses HLA-A*01:01. Put plainly: IEDB peptide-MHC binding, purified MHC/direct/fluorescence; filed as Kd, often an IC50 or EC50 that approximates it; ≥ and ≤ were set here for values at or beyond the usual limits of such assays.
Assay [2] concerns the target HLA-A*03:01. The assay is described as above.
Assay [3] has as its target HLA-A*11:01. Described as above.
Assay [4] has as its target HLA-A*26:01. The assay is described as above.
For assay [5], the target named is HLA-A*31:01. The description is as above.
Assay [6] deals with HLA-A*69:01. The assay is described as above.
Assay [7] deals with HLA-B*07:02. Described as above.
The target of assay [8] is HLA-B*15:17. The assay is described as above. To be noted: source organism: Camelpox virus CMS.
The target of assay [9] is HLA-B*18:01. Described as above.
In assay [10] the target is HLA-B*27:05. The description is as above.
The target in assay [11] is HLA-B*38:01. Described as above. Particulars: source organism: Variola virus.
Assay [12] concerns the target HLA-B*40:01. Described as above.
Assay [13] has as its target HLA-B*48:01. Described as above.
The target of assay [14] is HLA-B*51:01. Described as above. Particulars: source organism: Camelpox virus CMS.
Assay [15] addresses HLA-B*57:01. Described as above.
Assay [16] deals with HLA-B*58:01. Described as above.
For assay [17], the target named is HLA-A*02:01. In words: IEDB peptide-MHC binding, purified MHC/competitive/fluorescence; filed as Kd, often an IC50 or EC50 that approximates it; ≥ and ≤ were set here for values at or beyond the usual limits of such assays.
In assay [18] the target is HLA-B*08:01. Described as above. Particulars: source organism: Ectromelia virus.
For assay [19], the target named is HLA-B*15:01. The description is as above. Particulars: source organism: Ectromelia virus.
In assay [20] the target is HLA-B*15:09. The description is as above. To be noted: source organism: Ectromelia virus.
The target in assay [21] is HLA-A*02:01. In words: IEDB peptide-MHC binding, purified MHC/direct/fluorescence; filed as Kd, often an IC50 or EC50 that approximates it; ≥ and ≤ were set here for values at or beyond the usual limits of such assays. Particulars: source organism: Brucella abortus 2308.
Assay [22] has as its target HLA-B*08:01. The description is as above.
In assay [23] the target is HLA-B*15:01. The assay is described as above.
The target in assay [24] is HLA-B*44:02. The assay is described as above. To be noted: source organism: Brucella abortus 2308.
The target in assay [25] is HLA-B*73:01. The assay is described as above.
The target of assay [26] is HLA-C*07:02. The assay is described as above. To be noted: source organism: Mus musculus.
In assay [27] the target is HLA-B*15:42. Put plainly: IEDB peptide-MHC binding, purified MHC/competitive/fluorescence; filed as Kd, often an IC50 or EC50 that approximates it; ≥ and ≤ were set here for values at or beyond the usual limits of such assays. To be noted: source organism: Mus musculus.
Assay [28] addresses HLA-B*27:20. Described as above. Particulars: source organism: Mus musculus.
In assay [29] the target is HLA-B*45:06. Described as above. To be noted: source organism: Mus musculus.
The target of assay [30] is HLA-B*73:01. Described as above. Particulars: source organism: Mus musculus.
Assay [31] addresses HLA-C*06:02. The assay is described as above. Particulars: source organism: Mus musculus.
Assay [32] concerns the target HLA-C*04:01. Put plainly: IEDB peptide-MHC binding, purified MHC/direct/fluorescence; filed as Kd, often an IC50 or EC50 that approximates it; ≥ and ≤ were set here for values at or beyond the usual limits of such assays. To be noted: source organism: Leishmania major strain Friedlin.
In assay [33] the target is HLA-A*26:03. Described as above. Particulars: source organism: Ravn virus - Ravn, Kenya, 1987.
Assay [34] deals with HLA-B*08:02. Described as above. Particulars: source organism: Ravn virus - Ravn, Kenya, 1987.
The target of assay [35] is HLA-B*39:01. The description is as above. Particulars: source organism: Marburg virus - Musoke, Kenya, 1980.
The target in assay [36] is HLA-B*46:01. The assay is described as above. Particulars: source organism: Marburg virus - Musoke, Kenya, 1980.
Assay [37] deals with HLA-A*30:01. Put plainly: IEDB peptide-MHC binding, purified MHC/competitive/fluorescence; filed as Kd, often an IC50 or EC50 that approximates it; ≥ and ≤ were set here for values at or beyond the usual limits of such assays. To be noted: source organism: Orthomarburgvirus marburgense.
The target in assay [38] is HLA-A*68:02. The assay is described as above. To be noted: source organism: Orthomarburgvirus marburgense.
The target of assay [39] is HLA-B*07:02. The assay is described as above. To be noted: source organism: Orthomarburgvirus marburgense.
The target in assay [40] is HLA-B*15:17. Described as above. Particulars: source organism: Orthomarburgvirus marburgense.
The target of assay [41] is HLA-B*48:01. The description is as above. To be noted: source organism: Orthomarburgvirus marburgense.
In assay [42] the target is HLA-B*27:05. Described as above. To be noted: source organism: Mycobacterium tuberculosis variant bovis BCG str. Pasteur 1173P2.
The mark [43] stands for this setting: source organism: Camelpox virus CMS.
[44] abbreviates: source organism: Brucella abortus 2308.
Setting [45] is: source organism: Brucella melitensis.
Setting [46] is: source organism: Toxoplasma gondii.
Where [47] appears, read: source organism: Marburg virus - Musoke, Kenya, 1980.

In the case of VIARTHTAL, the Kd in [1] (setting [43]), in assay [2] (setting [43]), in [3] (setting [43]), in [4] (source organism: Variola virus), in [5] (setting [43]) and in assay [6] (setting [43]) was at least 20 µM each time. The Kd – broadly, the free concentration of one partner at which half of the binding sites on the other are occupied at equilibrium, for simple one-to-one binding – was 0.0583 µM in assay [7] (setting [43]); at least 20 µM in [8]; at least 20 µM in assay [9] (setting [43]); at least 20 µM in [10] (setting [43]); at least 20 µM in assay [11]; at least 20 µM in assay [12] (setting [43]). The Kd was at least 20 µM in assay [13] (setting [43]); at least 20 µM in assay [14]; at least 20 µM in assay [15] (setting [43]); at least 20 µM in [16] (setting [43]); at least 20 µM in [17] (source organism: Ectromelia virus); 0.0518 µM in assay [18]. The Kd in assay [19] was 0.785 µM; in assay [20], at least 20 µM.

As for KRASGDPYF, the Kd in assay [1] (setting [44]), in assay [21], in assay [2] (setting [44]), in assay [3] (setting [44]), in assay [4] (setting [44]) and in [5] (setting [44]) was at least 20 µM in each case. In addition, the Kd in [6] (setting [44]) is at least 20 µM; in assay [7] (setting [44]), at least 20 µM; in assay [22] (setting [44]), at least 20 µM; in [23] (setting [44]) it was at least 20 µM; in assay [10] (setting [45]), 2.79 µM; in assay [12] (setting [44]), at least 20 µM. Besides, the Kd is at least 20 µM in assay [24], 5.93 µM in assay [16] (setting [45]) and at least 20 µM in assay [25] (source organism: Brucella suis ATCC 23445).

As for FRMLAWHVL, the Kd was 0.03 µM in assay [26]; at least 5 µM in assay [27]; 0.0002 µM in assay [28]; at least 5 µM in [29]; 0.689 µM in assay [30]; 0.0038 µM in assay [31].

For the sequence TRDPNLAYI, the Kd in assay [32] was at least 20 µM.

Turning to WRMVVRASF, the Kd in assay [10] (setting [46]) is 0.008 µM; in [13] (setting [46]), at least 20 µM; in assay [25] (setting [46]), 1.34 µM.

As to YHLGGIEGL, the Kd in assay [1] (setting [47]) is at least 20 µM; in [33], at least 20 µM; in assay [6] (setting [47]) it was 2.41 µM; in assay [22] (source organism: Ravn virus - Ravn, Kenya, 1987), at least 20 µM; in [34] it was at least 20 µM; in [23] (setting [47]), at least 20 µM. Further, the Kd in assay [9] (setting [47]) was at least 20 µM; in [10] (setting [47]), at least 20 µM; in assay [35], 0.0403 µM; in assay [12] (setting [47]), at least 20 µM; in assay [36], at least 20 µM; in assay [15] (setting [47]), at least 20 µM. The Kd in [16] (setting [47]) is at least 20 µM; in assay [17] (source organism: Orthomarburgvirus marburgense), 0.007 µM; in assay [37], at least 20 µM; in assay [38], 1.44 µM; in [39], at least 20 µM; in [40], at least 20 µM. In assay [41], this sequence returned a Kd of 0.155 µM.

For the sequence GRAVSSATF, the Kd in assay [42] was found to be 0.141 µM.
